These results are taken from the DeepSol protein solubility set.

The nature of the data set: soluble on expression in E. coli; label from the status in PepcDB or PDB records.
Turning to “MKKKPLTPEQLDDAKRLKELFNAKKKALGISQESVAHELGVGQSAVNQFLNGVNPLNITNAAAFAKVLNEPISSFSPSLAKELAKMAESLSITTRSGAKDKPAVSVANSYPLISWISAGNWYEAIEPYTLRDIEIWPESTKHAHESAFWLSVKGDSMTSPSGISFPEGMIILVDPEKEPMPGNFVIAKLTDDNEATFKKLVVDAGIKYLKPLNPAYRLIELNGNCKILGVVVDARWLQID”, the “soluble on expression in E. coli” value is on record as “not soluble”.

Consider “MSGAEQQQIVPANNGDENWKAGLNLPAKDRRFKTADVTDTKGVEFEDFCLGRDLLMGIFEKGWEKPSPIQEASIGVALTGQDILARAKNGTGKTGAYCIPVIEKIQPALKAIQAMVIVPTRELALQTSQICVELSKHIQLKVMVTTGGTDLRDDIMRLNGTVHLVIATPGRILDLMEKGVAKMEHCKTLVLDEADKLLSQDFQGILDRLINFLPKERQVMLYSATFPNTVTSFMQKHMHKPYEINLMEELTLLGVTQYYAFVQEKQKVHCLNTLFRKLQINQSIIFCNSTQRVELLAKKITEIGYSCYYIHSKMAQNHRNRVFHDFRQGNCRNLVCSDLLTRGIDIQAVNVVINFDFPRNAETYLHRIGRSGRFGHLGVAINLITYEDRHTLRRIEQELRTRIEPIPKTVDPKLYVADQQLVDAADETTA”, for which the “soluble on expression in E. coli” value is recorded as “not soluble”.

For “MEIEVTPVDILLQLVKMGKVDPWNIDIVDLTEKYIKMLREMQELDLRISARAILAAAILVRMKSEALLNEDSREQEEKEEERIRVEVDPLVPPLRRVERYYTLDDLIDALMEALEEAERRKPKKKKKVEIDEEIFVIDDFRVDIEKYVEELYKVVKKIYEKTGTPIKFWDLVPDVEPKIIARTFLYLLFLENMGRVEIIQEEPFGEILVVPM”, the “soluble on expression in E. coli” value is reported as “soluble”.

“MEHFLQYVWQHRLYSSLSYGADAFFLEPEVIDPGMLNRDSGPDFFNAKVKVGDLLWAGNVEIHCRASDWVRHGHHLDPAYDNVVLHVVETDDLPIRHRISGEPVPVCVMHVDERLRANADFMLRTSLLPGCKDRLHELDSLEVHDWLDTLVVERLERKAAEVDRLYLSTSMDWNATAYILLARHFGFGLNNDALERLARSLPFAAIAKHRSNLLQVEALLLGQAGLLADLEDEYAEKLASEYAFLRHKFDLQPLDPSLFRLHRARPASFVHRRLGQLAAILHRCEFLFSSFVETVSAKELAQKLSVEASSYWASHYRFGKPTPVPSRSTLAAISSDALLINVAAPLRYAWLRGQSMEDYRERTIDFLRGIKPENNKPVRAFSQICRPADAAESQALIQLYREYCERRKCFFCRWGYRLLSCCKG”: the “soluble on expression in E. coli” value is “not soluble”.

Turning to “MSLKITGLRTRRIHIPFDKPIGTSIHRIEGVSGLLVWLDTDEGITGESYLWAIGRHRVPVLESIVRMLGERAIGKDPRDTTARFDEMWTEINFLGHKGVSLFGIAAIDWACWDILGQSLGASVSRLLGRRRDRVTAYASGGLWASMTIPELEAQARDFVAQGFTAVKMRIGKPDIGEDIERVAAVRSAIGSRIKLMADANQGLSVNHAIRLGRKLETFDLVWFEEPVQAYDLEGSARVAAEIDTPIASGETEYGRYGFRDMLERKSADVLMPDLERVGGVTEWVRVAHMAAAYDVPVSPHIFSEHSLQLCGAISNVNYAEHMPWFAELFQERLEMVDGDLLIPDRPGMGFRFDPDAVERYADEGHHHHHH”, the “soluble on expression in E. coli” value is given as “soluble”.

For “MASPELAEKLKKRLDGTDQEPETNPHQAPPPAPVIPQKIVENPYIPSVDTSIDDLIFKALEKKEENNNNNNNNNSNSTTTTPLEIKTERNQQHEHTTIDPRSPPPKRSILELLEQERLENELQQQSAPVPKTPVMVITKGAFPRSASPRRQQFVRENEDGNELEKRLAAQRMKKYTEEMESLVQKQVDVLDQIMSSPPPPPTSPPQLPPTPPARITSVRSDESIEEEERRRKESEETASFEELEAEIMRISRSPVPPPVLSIPPPPPPNIPLPTIPQEVQSPPSPRPTSVPPPIPSPGPSEDVNMDELIESFSDSVIFNNSMSPPPPLPPLRESSLETLEVTPEDPVTESKVEASPTPLPKATESLNESSIKALEGLEVKALEAQEASDDRPSAPTPIRDSSLPPPPPPKPETPLAIRRAGPIPTPQLLEMIHQEDCSIRPSSPTSVSHGSRPQSPAVPKKPSVTVSPLGLLCDPNLSIEKPEEMKTEDTKPVETAPAPVDEAELNDALDRRNKINEATCLTKIFPSLARMFR”, the “soluble on expression in E. coli” value is listed as “not soluble”.

As to “MSLRLALFDLDNTLLGGDSDHAWGDYLCERGFLDAVAYKTRNDEFYQDYLAGKLDNAAYLNFCLEILGRTDMVVLEEWHRDFMRDCIEPILLPKAQALLDKHRAAGDKLVIITATNRFVTAPIAERLGVETLIATECEMQDGRYTGRSTDVPCFREGKVTRLNRWLEETGHSLEDSYFYSDSMNDLPLLEQVTTAVAVDPDPNLRAEAEKRGWQVISLRDEGHHHHHH”, the “soluble on expression in E. coli” value is given as “soluble”.

Turning to “MPRSFLVKKHFNASKKPNYSELDTHTVIISPYLYESYSMPVIPQPEILSSGAYSPITVWTTAAPFHAQLPNGLSPLSGYSSSLGRVSPPPPSDTSSKDHSGSESPISDEEERLQSKLSDPHAIEAEKFQCNLCNKTYSTFSGLAKHKQLHCDAQSRKSFSCKYCDKEYVSLGALKMHIRTHTLPCVCKICGKAFSRPWLLQGHIRTHTGEKPFSCPHCNRAFADRSNLRAHLQTHSDVKKYQCKNCSKTFSRMSLLHKHEESGCCVAH”, the “soluble on expression in E. coli” value is listed as “not soluble”.

Regarding “MILELDCGNSLIKWRVIEGAARSVAGGLAESDDALVEQLTSQQALPVRACRLVSVRSEQETSQLVARLEQLFPVSALVASSGKQLAGVRNGYLDYQRLGLDRWLALVAAHHLAKKACLVIDLGTAVTSDLVAADGVHLGGYICPGMTLMRSQLRTHTRRIRYDDAEARRALASLQPGQATAEAVERGCLLMLRGFVREQYAMACELLGPDCEIFLTGGDAELVRDELAGARIMPDLVFVGLALACPIE”, the “soluble on expression in E. coli” value is on record as “not soluble”.

With “MGSDKIHHHHHHMAKLYFNYSTMNAGKSTVLLQASHNYRERGMQTYLMTAAIDGRAGTGRIASRIGIGAEADIFTPRDDVFAMIRDRLGAGPVACVFVDEAQFLSPEQVWQLARVVDDLDVPVLAYGLRVDFQGKLFPGSATLLALADEMREVRTICKCGRKATMVIRQDASGRAITEGAQVQIGGNETYVSLCRKHWREATGDPGAKGH”, the “soluble on expression in E. coli” value was “not soluble”.

Turning to “MADIDNKEQSELDQDLEDVEEVEEEETGEETKIKARQLTVQMMQNPQILAALQERLDGLVDTPTGYIESLPKVVKRRVNALKNLQVKCAQIEAKFYEEVHDLERKYAVLYQPLFDKRFEIINAIYEPTEEECEWKPDEEDEVSEELKEKAKIEDEKKDEEKEDPKGIPEFWLTVFKNVDLLSDMVQEHDEPILKHLKDIKVKFSDAGQPMSFVLEFHFEPNDYFTNEVLTKTYRMRSEPDDSDPFSFDGPEIMGCTGCQIDWKKGKNVTLKTIKKKQKHKGRGTVRTVTKTVSNDSFFNFFAPPEVPENGDLDDDAEAILAADFEIGHFLRERIIPRSVLYFTGEAIEDDDDDYDEEGEEADEGYQLFEEVKSCSKLFQRWLQ”, the “soluble on expression in E. coli” value is listed as “soluble”.

For the sequence “MSGPTDTSTQPQGFSMTRLRLIGSAVLLSLSSMAMADSASQAEQFLKLVHADKLTVPVYAQVQQMLAQRFAQAKAPESKKAVLERYQAKANAELDRAIGWDKIKPELIKLYTTNFTESELKDLNAFYQSPLGKKVLEKMPRLTAESAQLTQAKLQGAVEPVNKLMADMDKELGVAAPAQKKK”, the “soluble on expression in E. coli” value was “not soluble”.

For the sequence “SNAMLIIETLPLLRQHIRRLRQEGKRVALVPTMGNLHDGHMKLVDEAKARADVVIVSIFVNPMQFDRPDDLVRYPRTLQEDCEKLNKRKVDYVFAPAVEEIYPHGLEGQTYVDVPGLSTMLEGASRPGHFRGVSTIVSKLFNLIQPDIACFGEKDFQQLALIRKMVADMSYDIEIVGVPIIRAKDGLALSSRNAYLTAEQRKIAPGLYNVMNSIAEKLIAGNRELQEIIAIAEQELNEKGFRADDIQIRDADTLLELTETSKRAVILAAAWLGQARLIDNQSVTLAQ”, the “soluble on expression in E. coli” value is “soluble”.

For the sequence “PVERMRMRPWLEEQINSNTIPGLKWLNKEKKIFQIPWMHAARHGWDVEKDAPLFRNWAIHTGKHQPGIDKPDPKTWKANFRCAMNSLPDIEEVKDRSIKKGNNAFRVYRMLP”, the “soluble on expression in E. coli” value is reported as “soluble”.

On to “MSSTKKDIKVYVNYRDEYAEPKIISALKNSGKELTFTNSAKEANFQWAQYEDIDFDEVYKNPKTKLCCSYVIRKALIRKEYLWRTVITYLAKHPDSILSKSVPEAYSLELDYAEFLDDSLMEAYELRQELEENATKNISEKQWYILKPSMCDRAQGIRLFSTIEELQAIFDSFDDEESESEEAGLEEKGDITVAFNNKIVISQIRNFLVQKYISKPLLLDHRKFHIRAYVLATGALSVYLFNEMLCLLARDKYKKPTPDPDLLFSHLSNTCLQGDNVEQSSIRDFWNTSIENKDDIFKSILNIIGDVFEAAATTQGIHFQPLENCFEIFGVDFLVDCESQVYLLEVNSYPDFKQTGKNLSNIIENLFSAVVETAIIPFFESSTKRNVDSKLTLAKKLQLFGFR”, for which the “soluble on expression in E. coli” value was “soluble”.

As to “QMAGIYQALANDGQRIEPRIIEKVVDSSGNEVEQQPPAETRVVSAQTARTVVDMFRGVVQKDPTGINSGTGAGAAVDGYQVSGKTGTAQQVDPNTGAYSNSNYWITFAGIAPADNPRFVVALMLDKPHRGVHGEGGQSAAPLFHDIASWILDRDNVPLSPPMEGQLVLQAQ”, the “soluble on expression in E. coli” value is “not soluble”.

“MKIYYEGYGCTLNQGETGLYVNKLLSEGSVLVSRPDEADISIIGTCAVIQKTEDHMLKRIEELSRLGRVKVIGCLSAIKGSEISGGNIEAIDRNEFQQFQEYLEDTSIIDAEIMSGIPINQGCTGKCNFCISHIARGKLVSRRPEKIVNQIRMMVAAGKREIRISSLDTAAYGKDTGYRLPSLIKDITAVDGDFMLRVGMMEPRNTIEILDDLLEAYDDPKVFKFLHIPVQSGDDRVLTAMNREYTVDEFMQIIESFRKRFPDMTISTDVIIGYHAENDRSFDLTCDLIRKVQPEIINVTRFSPRELTPDFEHRPRPTNVLKDQDRTMAEIHRKIVSERFSALVGKVERILITEDGKPGTMVGRDASYRPVVIRAPAEKYTWHSARIIGYENTSLIGELVDLEHHHHHH”: the “soluble on expression in E. coli” value is given as “soluble”.

For the sequence “SDFPPTKLDYHVDMFNLQSHSRFLSLFKAQDGRIALILESTVFHPQGGGQPSDTGLIVFSGSDLKFSVQDVRSKDGIVLHYGVFEGSNPESGIDSEKGKEVYLTVDESRRKLNSRLHSAGHLLDMCMQKVGLGHLEPGKGYHFPDGPFVEYKGSVPQEEFQVKQKELEAEANELISKGGKVYAAILPYEEASVLCGGSLPDYISKGSTPRIIKLGDSPGCPCGGTHVSNLSDIISMKMRTKKGMTKVFYTIAS”, the “soluble on expression in E. coli” value is “soluble”.

As to “MGSDKIHHHHHHMIINRSCLKEFAEKVHFLPSSLTKSDLLTDPFRLHQENELGIYYSPHNEFINRDASLVIAGITPGFSQMKTAYETAAESLLQGGTLEQMAVDTKIAAGFSGSMRHNLITMLDLCGLPQAFGIQSAAKLFGELRHMLHTTSVIKYPVFIQQKNYTGYKPAITHSPILSTYAFGHFPAELNHVTGPALLIPLGKAAETVCETLIRQHSLQNLICLNGFPHPSGANGHRLKQFSKNKEQLERQIRSFAALVDFAIEKRK”, the “soluble on expression in E. coli” value is listed as “not soluble”.

Regarding “MKIAFLRPGKIGTPANHVYALLDYLREKGAEIREYDLKERDVNDVVKEIEEWKPLFLMDVNATGVIVAERDGKKHILADILGIVHVSVFFEDPLLFFPAFEGVEKPQNYIAFITELKHTDSLTALGIQNISYISPFVDLKQFPESEGEKDIEIAFVGPVVDPQIILNSVSQNYPQEIMPFFIETGEFMFRNPEVHILTAFNYVFGLFNPQMQEQFNKWREQNPSAFMRFLNDITAYTTMRRRMYLLHFLDGMDVKILGDYQGNLFENHEAIKVSSYEQLLKYYSRSNITVYVSPQTYPTGLSVIPLEILYMGSLPLIDFKGAIPGFLKPGEEIETFAPLDRADLEEKIVFYIEENREGINEIVQRGKKAVQERFTVKDRGEFVYNVLSDVKRQYEAAQKGQVN”, the “soluble on expression in E. coli” value is recorded as “not soluble”.
